What was measured:
PD-L1 [1] = molecular target: T1, PD-L1 (Homo sapiens, UniProt Q9NZQ7); test: Binding of candidate nanobodies to human PD-L1 on HEK293T/hPD-L1 cells, flow cytometry; parameters: expressed in transfected cells; host or cells: HEK293T; conditions: nanobody 10 μg/ml, FIG. 1
Experimental: The stably transfected cell line HEK293T/hPD-L1 was digested and centrifuged, and the supernatant was removed. The cells were washed once with PBS and the cell density was adjusted to 2.5×10^6 cells/mL. 100 μL of cell suspension was added to each cell sample, i.e., 2.5×10^5 cells/sample. Different anti-human PD-L1 candidate nanobodies (at a concentration of 10 μg/ml) were added into the samples. The samples were incubated in a 4° C. refrigerator for 20 min and then centrifuged to remove the supernatant, and washed once with PBS. The diluted antibody anti-human IgG Fc (FITC) was used as a secondary antibody to resuspend the above cells. The abtained samples were incubated in a 4° C. refrigerator for 20 min and centrifuged to remove the supernatant. The cells were washed twice with PBS, transferred to a flow tube; and detected on a flow cytometer to obtain the binding activity of the candidate nanobody with human PD-L1, as shown in FIG. 1.

CT26/hPD-L1 tumor = test: In vivo anti-tumor activity in CT26/hPD-L1 tumor model; parameters: species or system BALB/c mice with dual humanization of PD-1/PD-L1; conditions: 10 mg/kg intraperitoneal, 6 administrations D0-D16, tumors dissected on Day 17
Experimental: To further evaluate the in vivo anti-tumor activity of anti-human PD-L1 and TLR7 dual-targeting nanobody conjugates, the CT26/hPD-L1 tumor model established by using BALB/c mice with dual humanization of PD-1/PD-L1 targets was used. When the average tumor volume reached 80-100 mm^3, the mice were randomly divided into 6 groups according to the tumor volume, with 6 mice in each group; the day of grouping was defined as DO, and the drugs were administered on DO, D3, D7, D10, D13, and D16, for a total of 6 times, with a dose of 10 mg/kg by intraperitoneal administration. The tumor size was measured 2-3 times a week, and the tumor growth curve was plotted.

human PD-1/PD-L1 [2] = molecular target: T2, human PD-1/PD-L1 (Homo sapiens, UniProt Q9NZQ7); test: Blocking of human PD-1/PD-L1 binding on HEK293T/hPD-L1 cells, single concentration, flow cytometry; conditions: nanobody 10 μg/ml, human PD-1-his 1 μg/mL, FIG. 2
T2 construct: expressed in transfected cells; host or cells: HEK293T
T2 sequence (Q9NZQ7 19-290): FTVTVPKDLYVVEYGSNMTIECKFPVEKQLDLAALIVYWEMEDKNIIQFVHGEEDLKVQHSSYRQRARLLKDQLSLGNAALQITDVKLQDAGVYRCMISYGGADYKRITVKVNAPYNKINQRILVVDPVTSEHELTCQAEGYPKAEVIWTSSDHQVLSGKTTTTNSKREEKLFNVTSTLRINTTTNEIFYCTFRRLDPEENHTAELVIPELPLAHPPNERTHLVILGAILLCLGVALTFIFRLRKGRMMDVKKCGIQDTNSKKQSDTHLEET
Experimental: The stably transfected cell line HEK293T/hPD-L1 was digested and centrifuged to remove the supernatant. The cells were washed once with PBS and the cell density was adjusted to 2.5×10^6 cells/mL. 100 μL of cell suspension was added to each cell sample, i.e., 2.5×10^5 cells/sample. The human PD-1-his protein (at a concentration of 1 μg/mL) and candidate anti-human PD-L1 nanobodies (at a concentration of 10 μg/ml) were added to the samples respectively. The abtained samples were incubated in a refrigerator at 4° C. for 20 min and centrifuged to remove the supernatant. The obtained samples were washed once with PBS. The diluted antibody anti-his-APC was used as the secondary antibody to resuspend the above cells. The cells were incubated in a refrigerator at 4° C. for 20 min and centrifuged to remove the supernatant. The cells were washed twice with PBS, transferred to a flow tube; and detected by flow cytometry.

human PD-1/PD-L1 [3] = molecular target: T2, human PD-1/PD-L1; test: IC50 of blocking human PD-1/PD-L1 binding on HEK293T/hPD-L1 cells, flow cytometry; conditions: FIG. 3; for IC50 activity in blocking human PD-1/PD-L1 binding, compared with KN035: human PD-1-his 1 μg/mL
Experimental: The cell samples were prepared by digesting the stably transfected cell line HEK293T/hPD-L1. Different concentrations of nanobodies h_Nb1 or h_Nb2 or positive control antibody KN035 (sequence from the IMGT database) and human PD-1-his protein (concentration of 1 μg/mL) were added to the samples. After incubation and centrifugation, anti-his-APC was used as the secondary antibody for incubation and staining; and then the flow cytometer was used for detection to obtain the IC50 value of the candidate nanobody in blocking the binding of human PD-1/PD-L1, as shown in FIG. 3.

PD-L1 [4] = molecular target: T1, PD-L1; test: Affinity of affinity-matured nanobodies to PD-L1 compared with the original antibodies; format: binding; conditions: relative to original antibody (h_Nb1 VHH or h_Nb2 VHH)
From the text: The full-length amino acid sequences of preferred nanobodies that specifically bind to human PD-L1 in the above examples (SEQ ID No. 1 and SEQ ID No. 5) were annotated with the CCG method for the antibody CDR and FR regions. Suitable FR and CDR region templates were selected by antibody homology modeling to construct and select the optimal nanobody three-dimensional protein structure. The crystal structure of human PD-L1 protein was obtained from the PDB protein database. A preferred candidate library of PD-L1 nanobody-PD-L1 protein complex structures was obtained by protein complex homology modeling and protein-protein molecular docking methods. Based on the PD-1/PD-L1 in vitro competitive binding characteristics of the preferred antibodies, a suitable docking angle was selected to determine the optimal docking conformation. The key interaction sites of the selected nanobody-PD-L1 protein complex structure were analyzed, with attention paid to Van Der Waals forces, hydrogen bonds, ionic bonds, hydrophobic interactions, etc. The pairs of action sites with low affinity energy values between the nanobodies and the action sites on PD-L1 were focused on as affinity maturation point mutation objects. […] Finally, the affinity maturation scheme of the CDR regions of the preferred antibodies was determined, and the sequences of the antibodies after affinity maturation were SEQ ID NO. […]

T1 sequence (Q9NZQ7 19-290): as above

Row | Molecule | binding activity to human PD-L1 (PD-L1 [1]) | other results
1 | h_Nb13: anti-human PD-L1 nanobody, VHH SEQ ID NO: 28 (protein, h_Nb13 VHH) VHH: DVQLQESGGGLVQPGGSLRLSCAASGSIFSINAMGWYRQAPGKSRELVAAITSGGSTNYADSVKGRFTISRDTAKNTVYLLMNSLEPEDTAVYYCNVERRRPPHYLSEYDFDWGQGTQVTVSS | good binding activity | –
2 | h_Nb26: anti-human PD-L1 nanobody, VHH SEQ ID NO: 36 (protein, h_Nb26 VHH) VHH: DVQLQESGGGLVQPGGSLRLSCAAPGSIFRINAMGWYRQAPGKQRELVAAITSGGSTNYADSVQGRFTISRDNAKNTVYLQMNSLKPEDTAVYYCNVERRRPPHYYSDYDFDWGQGTQVTVSS | good binding activity | –
3 | KN035: positive control antibody (sequence from the IMGT database) (antibody, chains of the INN, looked up, V domains shown) VH: QVQLVESGGGLVQPGGSLRLSCAASGKMSSRRCMAWFRQAPGKERERVAKLLTTSGSTYLADSVKGRFTISRDNSKNTVYLQMNSLRAEDTAVYYCAADSFEDPTCTLVTSSGAFQYWGQGTLVTVSS | – | tumor inhibition rate (CT26/hPD-L1 tumor): 65.83%
4 | h_Nb5: anti-human PD-L1 nanobody, VHH SEQ ID NO: 13 (protein, h_Nb5 VHH) VHH: DVQLQESGGGAVQSGESLRLSCAASGRDLMFYDVAWFRQAPGKEREGVSYIRSSGTLTKYADSVKGRFTISRDNDKNTVSLQMNSLNPEDTAKYYCAARLQSATSHSDLREDEFNSWGQGTQVTVSS | good binding activity | –
5 | h_Nb4: anti-human PD-L1 nanobody, VHH SEQ ID NO: 9 (protein, h_Nb4 VHH) VHH: DVQLQESGGGLVQAGGSLRLSCAAPSRMFSGYTMGWYRQAPGKQRELVAQIANGGFTDYIDSVKGRFSISRDTVLNMMYLQMNSLKPEDTAVYYCNLVLVNGIPTRNWGQGTQVTVSS | good binding activity | –
6 | h_Nb9: anti-human PD-L1 nanobody, VHH SEQ ID NO: 20 (protein, h_Nb9 VHH) VHH: DVQLQESGGGLVQPGGSLRLSCASSGSIFGLGVKGWYRQPPGNQREMVAQIISGGRISYADSVKGRFTISRDNAKNTVYLQMNSLKPEDTAVYYCNAWGPGQRNYWGRGTQVTVSS | good binding activity | –
7 | h_Nb6: anti-human PD-L1 nanobody, VHH SEQ ID NO: 17 (protein, h_Nb6 VHH) VHH: DVQLQESGGGLAQPGGSLRLSCAASGFTFSSYAMSWARQAPGKGLEWVAGIYRGGSDTYYADSVKGRFTISRDNTKNTLYLQMNSLKPEDTALYYCIQGWGLGYANYDYWGQGTQVTVSS | good binding activity | –
8 | h_Nb12: anti-human PD-L1 nanobody, VHH SEQ ID NO: 24 (protein, h_Nb12 VHH) VHH: DVQLQESGGGLVQAGGSLRLSCAASGRTFSSRAMGWFRQAPGKEREFVAAISGSGRNTYYADSVKGRFTISRDNAKNSVNLQMNSLKPEDTAVYYCNAAGGGITIATMTQRTQYDYWGQGTQVTVSS | good binding activity | –
9 | h_Nb1: anti-human PD-L1 nanobody, VHH SEQ ID NO: 1 (protein, h_Nb1 VHH) VHH: DVQLQESGGGLVQPGGSLRLSCAASGFTFSSYAMSWVRQAPGKGLEWVSDINSGGDNTDYADSVKGRFTISRDNAKNTLYLQMNSLKPEDTAVYYCARGPKLCFSSWGQGTQVTVSS | good binding activity | activity in blocking human PD-1/PD-L1 binding (human PD-1/PD-L1 [2]): effectively block; IC50 activity in blocking human PD-1/PD-L1 binding, compared with KN035 (human PD-1/PD-L1 [3]): comparable to those of the positive control antibody KN035; tumor inhibition rate (CT26/hPD-L1 tumor): 81.17%
10 | h_Nb2: anti-human PD-L1 nanobody, VHH SEQ ID NO: 5 (protein, h_Nb2 VHH) VHH: DVQLQESGGGLVQPGGSLRLSCAASGFTFGDRWMYWLRQAPGKGLEWVSSINPAGRSTYYADSVKGRFTISRDNAKNTLYLQMNSLKSEDTAVYYCTKDPGGYQKGQGTQVTVSS | good binding activity | activity in blocking human PD-1/PD-L1 binding (human PD-1/PD-L1 [2]): effectively block; in vitro activity compared with KN035 (human PD-1/PD-L1 [3]; PD-1/PD-L1 blocking): superior to that of KNO35; IC50 activity in blocking human PD-1/PD-L1 binding, compared with KN035 (human PD-1/PD-L1 [3]): comparable to those of the positive control antibody KN035; tumor inhibition rate (CT26/hPD-L1 tumor): 85.14%
11 | h_Nb2_G101Y: affinity-matured VHH of h_Nb2, SEQ ID NO: 92 (protein, h_Nb2_G101Y VHH) VHH: DVQLQESGGGLVQPGGSLRLSCAASGFTFGDRWMYWLRQAPGKGLEWVSSINPAGRSTYYADSVKGRFTISRDNAKNTLYLQMNSLKSEDTAVYYCTKDPGYYQKGQGTQVTVSS | – | Improved value of relative affinity (PD-L1 [4]): 8.4837

From patent publication US20250197503A1, “ANTI-HUMAN PD-Ll AND TLR7 DOUBLE-TARGETING NANOBODY CONJUGATE DRUG AND USE THEREOF IN RESISTING TUMOR” (SHANGHAI INSTITUTE OF MATERIA MEDICA , CHINESE ACADEMY OF …, priority 2022, published 2025)
